Test results as given in the supplement of paper PMC10724198.
± gives the standard deviation of the averaged measurements.

system: Saccharomyces cerevisiae; assay: protein stability index of tFT-peptide fusion (C-terminal peptide) (PSI (0-1 scale)); higher = more stable (slower turnover); conditions: genetic background: wild type; temperature: 37 C
Description: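 MPS profiling in S. cerevisiae of the tFT-X12 degron library: putative degron peptides plus stable controls, 12 aa, fused to the C-terminus of a sfGFP-mCherry timer. Cells are FACS-sorted into 8 mCherry/sfGFP bins and deep-sequenced. PSI runs from 0 (unstable) to 1 (stable). Backgrounds are wild type, das1Δ and doa10Δ at 30 °C, and wild type, das1Δ, cdc34-1 and cdc53-1 at 37 °C; 2-3 technical replicates each.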
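Further: PSI is a weighted mean of sequencing reads over stability bins, variants kept only with over 10 reads, mCherry proximal and sfGFP distal, peptide attached via GGGS linker.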

AWGSWTLCVAVH and AWWMALAVPIVA are within error of each other in protein stability index: 0.0602 ± 0.015 for the first, 0.062 ± 0.00098 for the second.

First: CCFVGLRYVLWV
Second: CCLGVIASFIVW
The protein stability index of the first is higher: 0.462 ± 0.015 for the first, 0.408 ± 0.0049 for the second.

Compared with CFLLSYRWVFLC, CFSIPLVILNVL is higher in protein stability index: 0.0605 ± 0.03 for the first, 0.455 ± 0.0097 for the second.

CFWLLSSLLLFL and CFYVGFLGYFVF are within error of each other in protein stability index: 0.514 ± 0.0075 for the first, 0.505 ± 0.014 for the second.

Going from CGLGKVLGWRWV to CGPLLVTLVLSM, the protein stability index falls from 0.5193 ± 0.0018 to 0.476 ± 0.012.

First: CLAWWLGRVWVC
Second: CLILGLFSLIFL
The protein stability index of the first is lower: 0.105 ± 0.0053 for the first, 0.531 ± 0.056 for the second.

Compared with CLRVSFFFWLFA, CRFYIRITRRYS is lower in protein stability index: 0.424 ± 0.0084 for the first, 0.255 ± 0.031 for the second.

Compared with CRLLVFGLCVGA, CRWHLRIVRGLM is higher in protein stability index: 0.39 ± 0.0056 for the first, 0.415 ± 0.019 for the second.

Going from CSKGLSILLLLL to CSRDVFLFIKFL, the protein stability index falls from 0.53 ± 0.012 to 0.127 ± 0.037.

Compared with CSSLIMIITCVN, CTESVYIIRFML is higher in protein stability index: 0.122 ± 0.027 for the first, 0.466 ± 0.029 for the second.

Compared with CVEACVWYNAGL, CVILVVISGLLG is lower in protein stability index: 0.764 ± 0.015 for the first, 0.3491 ± 0.0021 for the second.

First: CVPGPRWWYHSA
Second: CWFGLVSLFWVV
The protein stability index of the first is higher: 0.53465 ± 0.00023 for the first, 0.434 ± 0.016 for the second.

Going from FGWLELVWFDLG to GIFYVRTIWSCG, the protein stability index falls from 0.68 ± 0.039 to 0.332 ± 0.011.

Compared with GRWGGYVGREWG, GSMGGVGVLGGD is higher in protein stability index: 0.461 ± 0.017 for the first, 0.552 ± 0.018 for the second.

Going from IGWGGGTWVKMG to LEDVLFVMVINI, the protein stability index rises from 0.166 ± 0.038 to 0.49 ± 0.03.

Going from LLSLLLDPLLCL to SDGGVVRGGCRG, the protein stability index falls from 0.6166 ± 0.0013 to 0.598 ± 0.016.

Compared with SVYLYFQVVAYG, VWVVRGFLGFGG is higher in protein stability index: 0.156 ± 0.0094 for the first, 0.4411 ± 0.00055 for the second.

system: Saccharomyces cerevisiae; assay: as above; conditions: genetic background: wild type; temperature: 30 C

Going from ACACFWVVWVGW to ACEFRFFYVFRC, the protein stability index falls from 0.378 ± 0.03 to 0.315 ± 0.008.

AERPVLIIIEFG and AFFCTLCLFLVS are within error of each other in protein stability index: 0.417 ± 0.027 for the first, 0.402 ± 0.014 for the second.

Compared with AFLCVFGFCFFV, AFRLRHEIISLM is lower in protein stability index: 0.339 ± 0.037 for the first, 0.282 ± 0.013 for the second.

First: AGGLLIGSVGVG
Second: AISLPVEVLAFS
The protein stability index of the first is higher: 0.45 ± 0.008 for the first, 0.383 ± 0.048 for the second.

AKVSFYALARQY and ALEFLLLVCRRL are within error of each other in protein stability index: 0.414 ± 0.036 for the first, 0.418 ± 0.012 for the second.

Compared with ALFLYNCVVVTD, ALLYIVVGWSLS is higher in protein stability index: 0.136 ± 0.0097 for the first, 0.24 ± 0.074 for the second.

Compared with ALRLVAFFWVPG, ALTLSYAIKLKV is lower in protein stability index: 0.422 ± 0.0081 for the first, 0.372 ± 0.014 for the second.

Going from AMFQLRLLVGSV to APASFRVLISAF, the protein stability index falls from 0.499 ± 0.033 to 0.136 ± 0.0083.

Compared with ARFFFFCVGILI, ARKWVAVTVTLW is lower in protein stability index: 0.378 ± 0.035 for the first, 0.267 ± 0.043 for the second.

ARVSLSFVSVSA and ARWNTDRRRRQL are within error of each other in protein stability index: 0.404 ± 0.015 for the first, 0.421 ± 0.017 for the second.

ASIEVGNVIKQM and ASSSPAPYAPYT are within error of each other in protein stability index: 0.518 ± 0.037 for the first, 0.635 ± 0.23 for the second.

First: ATAVMILCFRWC
Second: AVLAALVSTLAG
The protein stability index of the first is lower: 0.419 ± 0.053 for the first, 0.4785 ± 0.00075 for the second.

Going from AVPTSPYSLIVY to AWGSWTLCVAVH, the protein stability index falls from 0.476 ± 0.022 to 0.151 ± 0.011.

First: AWWMALAVPIVA
Second: CCFVGLRYVLWV
The protein stability index of the first is lower: 0.0514 ± 0.042 for the first, 0.365 ± 0.009 for the second.

Going from CCLGVIASFIVW to CFLLSYRWVFLC, the protein stability index falls from 0.3579 ± 0.0021 to 0.0949 ± 0.027.

Going from CFSIPLVILNVL to CFWLLSSLLLFL, the protein stability index rises from 0.413 ± 0.0076 to 0.453 ± 0.019.

CFYVGFLGYFVF and CGLGKVLGWRWV are within error of each other in protein stability index: 0.42 ± 0.0044 for the first, 0.4241 ± 0.0014 for the second.

Compared with CGPLLVTLVLSM, CLAWWLGRVWVC is lower in protein stability index: 0.404 ± 0.0049 for the first, 0.141 ± 0.006 for the second.

Going from CLILGLFSLIFL to CLRVSFFFWLFA, the protein stability index falls from 0.482 ± 0.027 to 0.351 ± 0.016.

Compared with CRFYIRITRRYS, CRLLVFGLCVGA is higher in protein stability index: 0.21 ± 0.025 for the first, 0.342 ± 0.014 for the second.

Compared with CRWHLRIVRGLM, CSKGLSILLLLL is higher in protein stability index: 0.377 ± 0.0026 for the first, 0.41 ± 0.0064 for the second.

Compared with CSRDVFLFIKFL, CSSLIMIITCVN is higher in protein stability index: 0.132 ± 0.02 for the first, 0.199 ± 0.046 for the second.

First: CTESVYIIRFML
Second: CVEACVWYNAGL
The protein stability index of the first is lower: 0.341 ± 0.084 for the first, 0.7382 ± 0.0062 for the second.

Going from CVILVVISGLLG to CVPGPRWWYHSA, the protein stability index rises from 0.345 ± 0.078 to 0.446 ± 0.0059.

First: CWFGLVSLFWVV
Second: YGAGLRIGQFRC
The protein stability index of the first is lower: 0.429 for the first, 0.747 ± 0.1 for the second.

YGCPSSSSVLDG and YGGRQRCRGRVE are within error of each other in protein stability index: 0.812 ± 0.11 for the first, 0.825 ± 0.16 for the second.

Compared with YGKENGNRNTGR, YGRANATHLGRR is higher in protein stability index: 0.621 ± 0.014 for the first, 0.661 ± 0.005 for the second.

YHARPQALPSRP and YHMNSSLLCLLW are within error of each other in protein stability index: 0.658 ± 0.055 for the first, 0.631 ± 0.032 for the second.

YIGGMRSHYASP and YIRSKPASDQFA are within error of each other in protein stability index: 0.734 ± 0.12 for the first, 0.7093 ± 0.00062 for the second.

YIVPAGGGLVSG and YKMTFVRGQGYE are within error of each other in protein stability index: 0.642 ± 0.096 for the first, 0.69 ± 0.041 for the second.

Going from YKNDNDKCIQMR to YKPLKNKDEEMD, the protein stability index falls from 0.678 ± 0.011 to 0.6127 ± 0.00088.

Compared with YLAYHVAAPGPV, YLCEATFLLTWL is lower in protein stability index: 0.686 ± 0.015 for the first, 0.618 ± 0.024 for the second.

Compared with YLGCSLAMAFSL, YLLLAFQRPTPG is higher in protein stability index: 0.6278 ± 0.0054 for the first, 0.694 ± 0.019 for the second.

YLLPSTPPPRIP and YLQLALFHSIPH are within error of each other in protein stability index: 0.6912 ± 0.0048 for the first, 0.738 ± 0.053 for the second.

YLSLPTSISLSS and YPLPFRHASIPF are within error of each other in protein stability index: 0.693 ± 0.016 for the first, 0.606 ± 0.096 for the second.

YPLPPLFLPLLL and YPPLTNNQINES are within error of each other in protein stability index: 0.675 ± 0.046 for the first, 0.69 ± 0.015 for the second.

YPPPPPLAPPRP and YPPREEPREDLA are within error of each other in protein stability index: 0.747 ± 0.14 for the first, 0.656 ± 0.026 for the second.

YPSTPPPPPHPA and YPTTSWNPARSV are within error of each other in protein stability index: 0.687 ± 0.1 for the first, 0.692 ± 0.12 for the second.

Going from YQSLVSIDLGFS to YRLAPGCSFHPT, the protein stability index falls from 0.745 ± 0.034 to 0.666 ± 0.028.

YRPPSPPSPLPP and YSCLGFELWGKG are within error of each other in protein stability index: 0.674 ± 0.007 for the first, 0.632 ± 0.067 for the second.

YSLQLSTVCCRL and YSLSDVAVLAST are within error of each other in protein stability index: 0.614 ± 0.019 for the first, 0.629 ± 0.045 for the second.

Compared with YSLTFSIHSSCP, YSLYVHPPNLYQ is lower in protein stability index: 0.697 ± 0.033 for the first, 0.6604 ± 0.0015 for the second.

YSRSSFSIPPPF and YSSLPPAFPNRS are within error of each other in protein stability index: 0.7239 ± 0.003 for the first, 0.734 ± 0.1 for the second.

YSVPDFIVVSHL and YSWRAKGVKRLR are within error of each other in protein stability index: 0.797 ± 0.12 for the first, 0.659 ± 0.029 for the second.

YTDVWLPARGSG and YTKIIPIFPEQL are within error of each other in protein stability index: 0.689 ± 0.056 for the first, 0.631 ± 0.03 for the second.

YVCCMEGFLKPL and YVFPYLLRAIPF are within error of each other in protein stability index: 0.619 ± 0.043 for the first, 0.601 ± 0.095 for the second.

First: YVLITGSTIPDN
Second: YVVCMNKSSFRG
The protein stability index of the first is lower: 0.694 ± 0.026 for the first, 0.769 ± 0.042 for the second.

Work on YWVPPDTIKSAI yielded a protein stability index of 0.7362 ± 0.0032.
